Reference: IntAct's records for PubMed 22579248

B1: Partitioning defective 3 homolog (Homo sapiens), Q8TEW0 (parent)
chain: MKVTVCFGRTRVVVPCGDGHMKVFSLIQQAVTRYRKAIAKDPNYWIQVHRLEHGDGGILDLDDILCDVADDKDRLVAVFDEQDPHHGGDGTSASSTGTQSPEIFGSELGTNNVSAFQPYQATSEIEVTPSVLRANMPLHVRRSSDPALIGLSTSVSDSNFSSEEPSRKNPTRWSTTAGFLKQNTAGSPKTCDRKKDENYRSLPRDTSNWSNQFQRDNARSSLSASHPMVGKWLEKQEQDEDGTEEDNSRVEPVGHADTGLEHIPNFSLDDMVKLVEVPNDGGPLGIHVVPFSARGGRTLGLLVKRLEKGGKAEHENLFRENDCIVRINDGDLRNRRFEQAQHMFRQAMRTPIIWFHVVPAANKEQYEQLSQSEKNNYYSSRFSPDSQYIDNRSVNSAGLHTVQRAPRLNHPPEQIDSHSRLPHSAHPSGKPPSAPASAPQNVFSTTVSSGYNTKKIGKRLNIQLKKGTEGLGFSITSRDVTIGGSAPIYVKNILPRGAAIQDGRLKAGDRLIEVNGVDLVGKSQEEVVSLLRSTKMEGTVSLLVFRQEDAFHPRELNAEPSQMQIPKETKAEDEDIVLTPDGTREFLTFEVPLNDSGSAGLGVSVKGNRSKENHADLGIFVKSIINGGAASKDGRLRVNDQLIAVNGESLLGKTNQDAMETLRRSMSTEGNKRGMIQLIVARRISKCNELKSPGSPPGPELPIETALDDRERRISHSLYSGIEGLDESPSRNAALSRIMGESGKYQLSPTVNMPQDDTVIIEDDRLPVLPPHLSDQSSSSSHDDVGFVTADAGTWAKAAISDSADCSLSPDVDPVLAFQREGFGRQSMSEKRTKQFSDASQLDFVKTRKSKSMDLGIADETKLNTVDDQKAGSPSRDVGPSLGLKKSSSLESLQTAVAEVTLNGDIPFHRPRPRIIRGRGCNESFRAAIDKSYDKPAVDDDDEGMETLEEDTEESSRSGRESVSTASDQPSHSLERQMNGNQEKGDKTDRKKDKTGKEKKKDRDKEKDKMKAKKGMLKGLGDMFRFGKHRKDDKIEKTGKIKIQESFTSEEERIRMKQEQERIQAKTREFRERQARERDYAEIQDFHRTFGCDDELMYGGVSSYEGSMALNARPQSPREGHMMDALYAQVKKPRNSKPSPVDSNRSTPSNHDRIQRLRQEFQQAKQDEDVEDRRRTYSFEQPWPNARPATQSGRHSVSVEVQMQRQRQEERESSQQAQRQYSSLPRQSRKNASSVSQDSWEQNYSPGEGFQSAKENPRYSSYQGSRNGYLGGHGFNARVMLETQELLRQEQRRKEQQMKKQPPSEGPSNYDSYKKVQDPSYAPPKGPFRQDVPPSPSQVARLNRLQTPEKGRPFYS
partner: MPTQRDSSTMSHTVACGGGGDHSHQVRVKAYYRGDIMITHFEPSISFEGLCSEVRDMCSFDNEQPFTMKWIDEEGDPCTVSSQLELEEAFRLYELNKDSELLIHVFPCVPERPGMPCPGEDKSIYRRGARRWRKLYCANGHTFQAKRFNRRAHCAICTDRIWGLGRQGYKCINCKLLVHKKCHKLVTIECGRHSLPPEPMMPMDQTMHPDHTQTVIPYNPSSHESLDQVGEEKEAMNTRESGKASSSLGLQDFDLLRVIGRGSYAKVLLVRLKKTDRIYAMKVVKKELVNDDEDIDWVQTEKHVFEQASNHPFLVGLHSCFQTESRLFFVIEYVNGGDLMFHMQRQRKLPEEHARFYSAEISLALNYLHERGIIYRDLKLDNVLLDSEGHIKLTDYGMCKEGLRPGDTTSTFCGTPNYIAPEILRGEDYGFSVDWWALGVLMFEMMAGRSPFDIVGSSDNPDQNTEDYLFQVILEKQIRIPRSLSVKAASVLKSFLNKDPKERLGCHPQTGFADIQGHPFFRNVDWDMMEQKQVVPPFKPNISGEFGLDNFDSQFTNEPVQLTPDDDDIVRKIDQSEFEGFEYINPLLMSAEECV
B2: Protein kinase C iota type (Mus musculus), Q62074 (parent)
chain: B1 partner

Variants of: B1
Details: with kpci_mouse Prkci

Row | effect of a mutation on the interaction | Variant
1 | disrupting interaction strength | S827E;S829E
2 | disrupting interaction strength | R832A
3 | decreasing interaction strength | S827A
4 | disrupting interaction strength | S827E
5 | disrupting interaction strength | F823A
6 | decreasing interaction strength | F823K
7 | disrupting interaction strength | R825A
8 | disrupting interaction strength | K831A
9 | disrupting interaction strength | F818A
10 | disrupting interaction strength | R820A
11 | disrupting interaction strength | S827A;S829A
12 | disrupting interaction strength | S829E

Variants of: B2
Details: with pard3_human PARD3, Q8TEW0

Row | effect of a mutation on the interaction | Variant
13 | decreasing interaction strength | MPTQRDSSTMSHTVACGGGGDHSHQVRVKAYYRGDIMITHFEPSISFEGLCSEVRDMCSFDNEQPFTMKWIDEEGDPCTVSSQLELEEAFRLYELNKDSELLIHVFPCVPERPGMPCPGEDKSIYRRGARRWRKLYCANGHTFQAKRFNRRAHCAICTDRIWGLGRQGYKCINCKLLVHKKCHKLVTIECGRHSLPPEPMMPMDQTMHPDHTQTVIPYNPSSHESLDQVGEEKEAMNTRESGKASSSLGLQDFDLLRVIGRGSYAKVLLVRLKKTDRIYAMKVVKKELVNKLQKIDWVQTEKHVFEQASNHPFLVGLHSCFQTESRLFFVIEYVNGGDLMFHMQRQRKLPEEHARFYSAEISLALNYLHERGIIYRDLKLDNVLLDSEGHIKLTDYGMCKEGLRPGDTTSTFCGTPNYIAPEILRGEDYGFSVDWWALGVLMFEMMAGRSPFDIVGSSDNPDQNTEDYLFQVILEKQIRIPRSLSVKAASVLKSFLNKDPKERLGCHPQTGFADIQGHPFFRNVDWDMMEQKQVVPPFKPNISGEFGLDNFDSQFTNEPVQLTPDDDDIVRKIDQSEFEGFEYINPLLMSAEECV [D291K;D292L;E293Q;D294K]
14 | decreasing interaction strength | MPTQRDSSTMSHTVACGGGGDHSHQVRVKAYYRGDIMITHFEPSISFEGLCSEVRDMCSFDNEQPFTMKWIDEEGDPCTVSSQLELEEAFRLYELNKDSELLIHVFPCVPERPGMPCPGEDKSIYRRGARRWRKLYCANGHTFQAKRFNRRAHCAICTDRIWGLGRQGYKCINCKLLVHKKCHKLVTIECGRHSLPPEPMMPMDQTMHPDHTQTVIPYNPSSHESLDQVGEEKEAMNTRESGKASSSLGLQDFDLLRVIGRGSYAKVLLVRLKKTDRIYAMKVVKKELVNDDEDIDWVQTEKHVFEQASNHPFLVGLHSCFQTESRLFFVIEYVNGGDLMFHMQRQRKLPEEHARFYSAEISLALNYLHERGIIYRDLKLDNVLLDSEGHIKLTDYGMCKEGLRPGDTTSTFCGTPDYIAPEILRGEDYGFSVDWWALGVLMFEMMAGRSPFDIVGSSDNPDQNTEDYLFQVILEKQIRIPRSLSVKAASVLKSFLNKDPKERLGCHPQTGFADIQGHPFFRNVDWDMMEQKQVVPPFKPNISGEFGLDNFDSQFTNEPVQLTPDDDDIVRKIDQSEFEGFEYINPLLMSAEECV [N417D]

Variants of: B2
Details: with pard3_human PARD3, Q8TEW0
Remark: another data set of the same source

Row | effect of a mutation on the interaction | Variant
15 | increasing interaction strength | MPTQRDSSTMSHTVACGGGGDHSHQVRVKAYYRGDIMITHFEPSISFEGLCSEVRDMCSFDNEQPFTMKWIDEEGDPCTVSSQLELEEAFRLYELNKDSELLIHVFPCVPERPGMPCPGEDKSIAAAGARRWRKLYCANGHTFQAKRFNRRAHCAICTDRIWGLGRQGYKCINCKLLVHKKCHKLVTIECGRHSLPPEPMMPMDQTMHPDHTQTVIPYNPSSHESLDQVGEEKEAMNTRESGKASSSLGLQDFDLLRVIGRGSYAKVLLVRLKKTDRIYAMKVVKKELVNDDEDIDWVQTEKHVFEQASNHPFLVGLHSCFQTESRLFFVIEYVNGGDLMFHMQRQRKLPEEHARFYSAEISLALNYLHERGIIYRDLKLDNVLLDSEGHIKLTDYGMCKEGLRPGDTTSTFCGTPNYIAPEILRGEDYGFSVDWWALGVLMFEMMAGRSPFDIVGSSDNPDQNTEDYLFQVILEKQIRIPRSLSVKAASVLKSFLNKDPKERLGCHPQTGFADIQGHPFFRNVDWDMMEQKQVVPPFKPNISGEFGLDNFDSQFTNEPVQLTPDDDDIVRKIDQSEFEGFEYINPLLMSAEECV [Y125A;R126A;R127A]
